According to US20160194681:

B1: human auto-activating MMP-9 (protein)
chain: APRQRQSTLVLFPGDLRTNLTDRQLAEEYLYRYGYTRVAEMRGESKSLGPALLLLQKQLSLPETGELDSATLKAMRTPRCLVPDLGRFQTFEGDLKWHHHNITYWIQNYSEDLPRAVIDDAFARAFALWSAVTPLTFTRVYSRDADIVIQFGVAEHGDGYPFDGKDGLLAHAFPPGPGIQGDAHFDDDELWSLGKGVVVPTRFGNADGAACHFPFIFEGRSYSACTTDGRSDGLPWCSTTANYDTDDRFGFCPSERLYTQDGNADGKPCQFPFIFQGQSYSACTTDGRSDGYRWCATTANYDRDKLFGFCPTRADSTVMGGNSAGELCVFPFTFLGKEYSTCTSEGRGDGRLWCATTSNFDSDKKWGFCPDQGYSLFLVAAHEFGHALGLDHSSVPEALMYPMYRFTEGPPLHKDDVNGIRHLYGPRPEPEPRPPTTTTPQPTAPPTVCPTGPPTVHPSERPTAGPTGPPSAGPTGPPTAGPSTATTVPLSPVDDACNVNIFDAIAEIGNQLYLFKDGKYWRFSEGRGSRPQGPFLIADKWPALPRKLDSVFEERLSKKLFFFSGRQVWVYTGASVLGPRRLDKLGLGADVAQVTGALRSGRGKMLLFSGRRLWRFDVKAQMVDPRSASEVDRMFPGVPLDTHDVFQYREKAYFCQDRFYWRVSSRSELNQVDQVGYVTYDILQCPED
B2: inactive human MMP-9 (protein)
chain: APRQRQSTLVLFPGDLRTNLTDRQLAEEYLYRYGYTRVAEMRGESKSLGPALLLLQKQLSLPETGELDSATLKAMRTPRCGVPDLGRFQTFEGDLKWHHHNITYWIQNYSEDLPRAVIDDAFARAFALWSAVTPLTFTRVYSRDADIVIQFGVAEHGDGYPFDGKDGLLAHAFPPGPGIQGDAHFDDDELWSLGKGVVVPTRFGNADGAACHFPFIFEGRSYSACTTDGRSDGLPWCSTTANYDTDDRFGFCPSERLYTQDGNADGKPCQFPFIFQGQSYSACTTDGRSDGYRWCATTANYDRDKLFGFCPTRADSTVMGGNSAGELCVFPFTFLGKEYSTCTSEGRGDGRLWCATTSNFDSDKKWGFCPDQGYSLFLVAAHEFGHALGLDHSSVPEALMYPMYRFTEGPPLHKDDVNGIRHLYGPRPEPEPRPPTTTTPQPTAPPTVCPTGPPTVHPSERPTAGPTGPPSAGPTGPPTAGPSTATTVPLSPVDDACNVNIFDAIAEIGNQLYLFKDGKYWRFSEGRGSRPQGPFLIADKWPALPRKLDSVFEERLSKKLFFFSGRQVWVYTGASVLGPRRLDKLGLGADVAQVTGALRSGRGKMLLFSGRRLWRFDVKAQMVDPRSASEVDRMFPGVPLDTHDVFQYREKAYFCQDRFYWRVSSRSELNQVDQVGYVTYDILQCPED

Target: genetically encoded FRET-based MMP-9 activity biosensor with α-helical linker, P09619
Sequence (P09619 whole entry, looked up): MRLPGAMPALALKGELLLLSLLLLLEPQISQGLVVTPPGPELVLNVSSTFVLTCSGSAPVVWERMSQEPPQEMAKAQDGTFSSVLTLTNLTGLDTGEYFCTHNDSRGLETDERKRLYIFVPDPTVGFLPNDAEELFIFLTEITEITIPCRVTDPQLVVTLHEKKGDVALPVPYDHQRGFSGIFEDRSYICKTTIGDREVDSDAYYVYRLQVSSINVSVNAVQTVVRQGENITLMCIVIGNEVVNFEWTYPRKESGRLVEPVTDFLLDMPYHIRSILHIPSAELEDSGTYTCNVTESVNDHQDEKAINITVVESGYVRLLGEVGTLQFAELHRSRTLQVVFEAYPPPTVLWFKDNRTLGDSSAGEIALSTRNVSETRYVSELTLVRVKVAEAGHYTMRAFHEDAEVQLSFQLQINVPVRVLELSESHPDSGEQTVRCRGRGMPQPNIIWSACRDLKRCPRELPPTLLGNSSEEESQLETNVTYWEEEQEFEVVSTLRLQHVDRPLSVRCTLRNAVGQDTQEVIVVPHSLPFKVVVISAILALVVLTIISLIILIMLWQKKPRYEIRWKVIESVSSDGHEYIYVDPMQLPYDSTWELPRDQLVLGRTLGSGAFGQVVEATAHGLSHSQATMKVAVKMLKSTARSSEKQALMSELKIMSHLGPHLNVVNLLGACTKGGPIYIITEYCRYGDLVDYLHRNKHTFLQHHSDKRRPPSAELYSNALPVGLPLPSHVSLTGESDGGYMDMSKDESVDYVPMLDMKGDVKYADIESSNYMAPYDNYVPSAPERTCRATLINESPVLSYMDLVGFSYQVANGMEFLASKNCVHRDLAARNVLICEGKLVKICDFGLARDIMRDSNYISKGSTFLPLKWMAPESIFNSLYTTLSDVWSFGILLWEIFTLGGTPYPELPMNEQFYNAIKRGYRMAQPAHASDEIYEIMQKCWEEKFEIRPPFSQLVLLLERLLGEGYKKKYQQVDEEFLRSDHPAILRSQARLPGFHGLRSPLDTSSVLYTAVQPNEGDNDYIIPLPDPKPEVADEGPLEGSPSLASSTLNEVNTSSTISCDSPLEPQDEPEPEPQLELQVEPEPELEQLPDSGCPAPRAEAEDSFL

Protein	in vitro cleavage of the biosensor in HEK293 lysate, Western blot with anti-GFP antibody
B1	The MMP-9 activity biosensor is cleaved in vitro by a human auto-activating MMP-9
B2	Inactive human MMP-9 does not cleave the biosensor
